# B1: Colicin-A (Citrobacter freundii), P04480 (parent)
# chain: MPGFNYGGKGDGTGWSSERGSGPEPGGGSHGNSGGHDRGDSSNVGNESVTVMKPGDSYNTPWGKVIINAAGQPTMNGTVMTADNSSMVPYGRGFTRVLNSLVNNPVSPAGQNGGKSPVQTAVENYLMVQSGNLPPGYWLSNGKVMTEVREERTSGGGGKNGNERTWTVKVPREVPQLTASYNEGMRIRQEAADRARAEANARALAEEEARAIASGKSKAEFDAGKRVEAAQAAINTAQLNVNNLSGAVSAANQVITQKQAEMTPLKNELAAANQRVQETLKFINDPIRSRIHFNMRSGLIRAQHNVDTKQNEINAAVANRDALNSQLSQANNILQNARNEKSAADAALSAATAQRLQAEAALRAAAEAAEKARQRQAEEAERQRQAMEVAEKAKDERELLEKTSELIAGMGDKIGEHLGDKYKAIAKDIADNIKNFQGKTIRSFDDAMASLNKITANPAMKINKADRDALVNAWKHVDAQDMANKLGNLSKAFKVADVVMKVEKVREKSIEGYETGNWGPLMLEVESWVLSGIASSVALGIFSATLGAYALSLGVPAIAVGIAGILLAAVVGALIDDKFADALNNEIIRPAH
# partner: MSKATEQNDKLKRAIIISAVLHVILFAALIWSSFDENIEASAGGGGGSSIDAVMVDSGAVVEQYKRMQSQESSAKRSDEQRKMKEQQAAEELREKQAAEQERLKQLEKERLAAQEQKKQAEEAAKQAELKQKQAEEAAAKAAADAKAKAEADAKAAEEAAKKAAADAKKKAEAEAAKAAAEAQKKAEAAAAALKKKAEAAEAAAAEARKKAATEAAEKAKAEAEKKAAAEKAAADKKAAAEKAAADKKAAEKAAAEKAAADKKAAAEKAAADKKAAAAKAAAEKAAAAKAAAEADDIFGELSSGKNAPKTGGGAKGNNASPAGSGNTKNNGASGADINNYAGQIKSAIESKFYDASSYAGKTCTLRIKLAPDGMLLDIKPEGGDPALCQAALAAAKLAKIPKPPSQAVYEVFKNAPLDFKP
# Variants of: B1
# Settings: with tola_ecoli tolA
row,Variant,effect of a mutation on the interaction
1,MPGFNYGGKGDGTGWSSERGSGPEPGGGSHGNSGGHDRGDSSNVGNESVTVMKPGDSANTPWGKVIINAAGQPTMNGTVMTADNSSMVPYGRGFTRVLNSLVNNPVSPAGQNGGKSPVQTAVENYLMVQSGNLPPGYWLSNGKVMTEVREERTSGGGGKNGNERTWTVKVPREVPQLTASYNEGMRIRQEAADRARAEANARALAEEEARAIASGKSKAEFDAGKRVEAAQAAINTAQLNVNNLSGAVSAANQVITQKQAEMTPLKNELAAANQRVQETLKFINDPIRSRIHFNMRSGLIRAQHNVDTKQNEINAAVANRDALNSQLSQANNILQNARNEKSAADAALSAATAQRLQAEAALRAAAEAAEKARQRQAEEAERQRQAMEVAEKAKDERELLEKTSELIAGMGDKIGEHLGDKYKAIAKDIADNIKNFQGKTIRSFDDAMASLNKITANPAMKINKADRDALVNAWKHVDAQDMANKLGNLSKAFKVADVVMKVEKVREKSIEGYETGNWGPLMLEVESWVLSGIASSVALGIFSATLGAYALSLGVPAIAVGIAGILLAAVVGALIDDKFADALNNEIIRPAH [Y58A],disrupting interaction
